{
  "source": "patent US20220033483A1",
  "about": "(GUAGNDONG FEIPENG BIOLOGICAL, published 2022)",
  "key": {"[1]": {"target": "T1, cTnI quality control product recombinant protein (human, UniProt P19429 1-210, limits assumed)", "T1 construct": "the assay paragraphs only say cTnI; also called cardiac troponin I; cTnI antigen", "T1 sequence (P19429 whole entry)": "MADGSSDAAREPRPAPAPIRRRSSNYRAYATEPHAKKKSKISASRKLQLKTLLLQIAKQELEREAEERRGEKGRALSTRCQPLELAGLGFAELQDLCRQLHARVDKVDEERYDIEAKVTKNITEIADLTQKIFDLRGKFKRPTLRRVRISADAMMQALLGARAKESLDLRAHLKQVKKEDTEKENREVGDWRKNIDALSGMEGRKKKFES", "assay": "AMC biosensor, antibody on sensor", "method": "(§1) Operating process: it is equilibrated in Buffer 1 (PBST) for 60 s, the antibody is immobilized in an antibody solution for 300 s, incubated in Buffer 2 (PBST) for 180 s, bound in antigen solution for 420 s, dissociated in the Buffer 2 for 1200 s, 10 mM of GLY solution with pH 1.69 and Buffer 3 are used for sensor regeneration, and data is output."}, "[2]": {"target": "T1, cTnI quality control product …", "assay": "AMC biosensor, antibody on sensor", "method": "as §1", "remark": "listed apart in the source"}, "[3]": {"target": "T1, cTnI quality control product …", "assay": "capture ELISA, antibody 1.372 ng/ml, cTnI 0.15 ug/ml", "method": "(§2) After mutation, the antibody activity is detected, 1 μg/ml of goat anti-mouse IgG is diluted with coating solution to coat a microwell plate, 100 μL per well, and overnight at 4 DEG C.; on the next day, it is washed twice with washing solution, and patted dry; blocking solution (20% BSA+80% PBS) is added, 120 μL per well, 37 DEG C., and 1 h, and patted dry; a diluted cTnI monoclonal antibody is added, 100 μL/well, 37 DEG C., and 60 min; liquid in the plate is shaken off, patted dry, and […] of mouse negative blood is added for blocking, 120 μl per well, 37 DEG C., 1 h; liquid in the plate is shaken off, patted dry, a diluted cTnI antigen (0.15 μg/ml) is added, 100 μL per well, 37 DEG C., and 40 min; it is washed for 5 times with the washing solution, and patted dry; another strain of the cTnI monoclonal antibody (1:5K) labeled with HRP is added, 100 μL per well, 37 DEG C., and 30 min; color developing solution A (50 μL/well) is added, color developing solution B (50 μL/well) is added, 10 min; stop solution is added, 50 μL/well; and a OD value is read at 450 nm (refer to 630 nm) on a microplate reader."}, "[4]": {"target": "T1, cTnI quality control product …", "assay": "capture ELISA, antibody 4.115 ng/ml, cTnI 0.15 ug/ml", "method": "as §2"}, "[5]": {"target": "T1, cTnI quality control product …", "assay": "capture ELISA, antibody 12.346 ng/ml, cTnI 0.15 ug/ml", "method": "as §2"}, "[6]": {"target": "T1, cTnI quality control product …", "assay": "capture ELISA, antibody 37.037 ng/ml, cTnI 0.15 ug/ml", "method": "as §2"}, "[7]": {"target": "T1, cTnI quality control product …", "assay": "capture ELISA, antibody 111.111 ng/ml, cTnI 0.15 ug/ml", "method": "as §2"}, "[8]": {"target": "T1, cTnI quality control product …", "assay": "capture ELISA, antibody 333.333 ng/ml, cTnI 0.15 ug/ml", "method": "as §2"}, "[9]": {"target": "T1, cTnI quality control product …", "assay": "capture ELISA, antibody 1000.000 ng/ml, cTnI 0.15 ug/ml", "method": "as §2"}, "[10]": {"target": "T1, cTnI quality control product …", "assay": "capture ELISA, antibody 0.000 ng/ml (blank), cTnI 0.15 ug/ml", "method": "as §2"}},
  "note": "Where two headings read alike, the source gives them in different places.",
  "data": [
    {"binder": "Anti-cTnI 7B9 monoclonal antibody (recombinant, Sample 1) (antibody, mouse IgG1, kappa, V domains shown, Recombinant mouse antibody expressed in CHO cells; also called WT; Anti-cTnI 7B9 antibody) VH: QVQLQQSGTELAKPGASVKFSCKASDYTFSTYWMYWIKQRPGQGLEWIGYLNPSSGHTEYNQRFKDKATLTADKSSSTAYMQLNSLTSEDSAVYYCARKYFGPFAMDYWGQGTSVTVSS VL: EIFLTQSPAIMSASPGEKVTMTCSASTTVSYAHWYQQKSGTSPKRWLYDSSKIASGIPVRFSGSGSGTSYSLTISSMEAEDAATYYCQNWSTQPYTFGGGTKLEIKR", "values": [
      {"measurement": "Kd", "setting": "[1]", "value": 12.9, "unit": "nM"},
      {"measurement": "koff", "setting": "[1]", "value": 0.000368, "unit": "s⁻¹"},
      {"measurement": "kon", "setting": "[1]", "value": 28600, "unit": "M⁻¹ s⁻¹"},
      {"measurement": "Kd", "setting": "[2]", "value": 12.9, "unit": "nM"},
      {"measurement": "koff", "setting": "[2]", "value": 0.000368, "unit": "s⁻¹"},
      {"measurement": "kon", "setting": "[2]", "value": 28600, "unit": "M⁻¹ s⁻¹"},
      {"measurement": "OD 450 nm", "setting": "[3]", "value": 0.174, "unit": "OD"},
      {"measurement": "OD 450 nm", "setting": "[4]", "value": 0.475, "unit": "OD"},
      {"measurement": "OD 450 nm", "setting": "[5]", "value": 0.947, "unit": "OD"},
      {"measurement": "OD 450 nm", "setting": "[6]", "value": 1.7, "unit": "OD"},
      {"measurement": "OD 450 nm", "setting": "[7]", "value": 1.88, "unit": "OD"},
      {"measurement": "OD 450 nm", "setting": "[8]", "value": 2.01, "unit": "OD"},
      {"measurement": "OD 450 nm", "setting": "[9]", "value": 2.1, "unit": "OD"},
      {"measurement": "OD 450 nm", "setting": "[10]", "value": 0.144, "unit": "OD"}
    ]},
    {"binder": "Mutation 1 (antibody, V domains shown, other CDR sites as WT) VH: QVQLQQSGTELAKPGASVKFSCKASGYTFSTYWMYWIKQRPGQGLEWIGYLNPSSGHTDYNQRFKDKATLTADKSSSTAYMQLNSLTSEDSAVYYCARKYFGPFGMDYWGQGTSVTVSS VL: EIFLTQSPAIMSASPGEKVTMTCSASTTVSYVHWYQQKSGTSPKRWLYDTSKIASGIPVRFSGSGSGTSYSLTISSMEAEDAATYYCQQWSTQPYTFGGGTKLEIKR", "values": [
      {"measurement": "Kd", "setting": "[1]", "value": 9.96, "unit": "nM"},
      {"measurement": "koff", "setting": "[1]", "value": 0.000263, "unit": "s⁻¹"},
      {"measurement": "kon", "setting": "[1]", "value": 26400, "unit": "M⁻¹ s⁻¹"},
      {"measurement": "Kd", "setting": "[2]", "value": 9.96, "unit": "nM"},
      {"measurement": "koff", "setting": "[2]", "value": 0.000263, "unit": "s⁻¹"},
      {"measurement": "kon", "setting": "[2]", "value": 26400, "unit": "M⁻¹ s⁻¹"},
      {"measurement": "OD 450 nm", "setting": "[3]", "value": 1.03, "unit": "OD"},
      {"measurement": "OD 450 nm", "setting": "[4]", "value": 1.97, "unit": "OD"},
      {"measurement": "OD 450 nm", "setting": "[5]", "value": 2.34, "unit": "OD"},
      {"measurement": "OD 450 nm", "setting": "[6]", "value": 2.36, "unit": "OD"},
      {"measurement": "OD 450 nm", "setting": "[7]", "value": 2.4, "unit": "OD"},
      {"measurement": "OD 450 nm", "setting": "[8]", "value": 2.4, "unit": "OD"},
      {"measurement": "OD 450 nm", "setting": "[9]", "value": 2.34, "unit": "OD"},
      {"measurement": "OD 450 nm", "setting": "[10]", "value": 0.193, "unit": "OD"}
    ]},
    {"binder": "Mutation 2 (antibody, V domains shown, other CDR sites as WT) VH: QVQLQQSGTELAKPGASVKFSCKASLYTFSTYWMYWIKQRPGQGLEWIGYLNPSSGHTEYNQRFKDKATLTADKSSSTAYMQLNSLTSEDSAVYYCARKYFGPFIMDYWGQGTSVTVSS VL: EIFLTQSPAIMSASPGEKVTMTCSASTTVSYAHWYQQKSGTSPKRWLYDTSKIASGIPVRFSGSGSGTSYSLTISSMEAEDAATYYCQVWSTQPYTFGGGTKLEIKR", "values": [
      {"measurement": "Kd", "setting": "[1]", "value": 15.6, "unit": "nM"},
      {"measurement": "koff", "setting": "[1]", "value": 0.000434, "unit": "s⁻¹"},
      {"measurement": "kon", "setting": "[1]", "value": 27800, "unit": "M⁻¹ s⁻¹"},
      {"measurement": "OD 450 nm", "setting": "[3]", "value": 0.528, "unit": "OD"},
      {"measurement": "OD 450 nm", "setting": "[4]", "value": 1.15, "unit": "OD"},
      {"measurement": "OD 450 nm", "setting": "[5]", "value": 1.61, "unit": "OD"},
      {"measurement": "OD 450 nm", "setting": "[6]", "value": 2.13, "unit": "OD"},
      {"measurement": "OD 450 nm", "setting": "[7]", "value": 2.17, "unit": "OD"},
      {"measurement": "OD 450 nm", "setting": "[8]", "value": 2.3, "unit": "OD"},
      {"measurement": "OD 450 nm", "setting": "[9]", "value": 2.33, "unit": "OD"},
      {"measurement": "OD 450 nm", "setting": "[10]", "value": 0.224, "unit": "OD"}
    ]},
    {"binder": "Mutation 3 (antibody, V domains shown, other CDR sites as WT) VH: QVQLQQSGTELAKPGASVKFSCKASIYTFSTYWMYWIKQRPGQGLEWIGYLNPSSGHTGYNQRFKDKATLTADKSSSTAYMQLNSLTSEDSAVYYCARKYFGPFVMDYWGQGTSVTVSS VL: EIFLTQSPAIMSASPGEKVTMTCSASTTVSYIHWYQQKSGTSPKRWLYDTSKIASGIPVRFSGSGSGTSYSLTISSMEAEDAATYYCQRWSTQPYTFGGGTKLEIKR", "values": [
      {"measurement": "Kd", "setting": "[1]", "value": 17.8, "unit": "nM"},
      {"measurement": "koff", "setting": "[1]", "value": 0.000481, "unit": "s⁻¹"},
      {"measurement": "kon", "setting": "[1]", "value": 27000, "unit": "M⁻¹ s⁻¹"},
      {"measurement": "OD 450 nm", "setting": "[3]", "value": 0.367, "unit": "OD"},
      {"measurement": "OD 450 nm", "setting": "[4]", "value": 0.978, "unit": "OD"},
      {"measurement": "OD 450 nm", "setting": "[5]", "value": 1.41, "unit": "OD"},
      {"measurement": "OD 450 nm", "setting": "[6]", "value": 2, "unit": "OD"},
      {"measurement": "OD 450 nm", "setting": "[7]", "value": 2, "unit": "OD"},
      {"measurement": "OD 450 nm", "setting": "[8]", "value": 2.11, "unit": "OD"},
      {"measurement": "OD 450 nm", "setting": "[9]", "value": 2.21, "unit": "OD"},
      {"measurement": "OD 450 nm", "setting": "[10]", "value": 0.204, "unit": "OD"}
    ]}
  ]
}
